Source: patent US20050032145A1, “Methods for measuring activity of glutamine:fructose 6-phosphate amidotransferase and activity of inhibitors thereof” (priority 2002, published 2005)

Key:
[1] = substrate: NC(=O)CC[C@H](N)C(=O)O; assay: Substrate Km determination, Lineweaver-Burk plot (GFAT-alpha); type: biochemical, human; details: other: extracts from transfected SF9 insect cells, other substrate at saturating levels
Experimental: (§1) FIG. 3 illustrates the effect of varying concentrations of the substrates glutamine and fructose 6-phosphate on the enzyme activity of GFAT-alpha and GFAT-beta. FIG. 3A is a graph illustrating incubation with 10 μl glutamine 200 mM+10 μl fructose 6-phosphate 3.125, 6.25, 12.5, 25, 50, 100, and 200 mM. FIG. 3B is a graph illustrating incubation with 10 μl fructose 6-phosphate 200 mM+10 μl glutamine 3.125, 6.25, 12.5, 25, 50, 100, and 200 mM. 10 μl of GFAT-alpha and 5 μl of GFAT-beta extracts from transfected SF9 insect cells are incubated with 1) 10 μl glutamine 200 mM+10 μl fructose 6-phosphate 3.125, 6.25, 12.5, 25, 50, 100, and 200 mM, and 2) 10 μl fructose 6-phosphate 200 mM+10 μl glutamine 3.125, 6.25, 12.5, 25, 50, 100, and 200 mM in an incubation media containing 10 μl PBS 10×, 10 μl EDTA 50 mM, 10 μl, DTT 10 mM and water to 100 μl. The plate is sealed with a Costar plate sealer and incubated for 60 minutes at 37° C. by floating on a water bath. Additional incubation mixture is kept on ice to add to standard and control samples. […] After a 20-minute incubation at 37° C., the OD is determined for each well at 585 nm. […]
(§2) FIG. 3C is a table illustrating the Km values of the substrates for the GFAT-alpha and GFAT-beta enzymes calculated from the data generated in FIGS. 3A and 3B. […]

[2] = substrate: O=C(CO)[C@@H](O)[C@H](O)[C@H](O)COP(=O)(O)O; assay: as above; type: biochemical, human; details: other: extracts from transfected SF9 insect cells, other substrate at saturating levels
Experimental: as §1, §2

B1: GFAT-alpha (Homo sapiens; I57T) (protein)
chain: MCGIFAYLNYHVPRTRREILETLIKGLQRLEYRGYDSAGVGFDGGNDKDWEANACKTQLIKKKGKVKALDEEVHKQQDMDLDIEFDVHLGIAHTRWATHGEPSPVNSHPQRSDKNNEFIVIHNGIITNYKDLKKFLESKGYDFESETDTETIAKLVKYMYDNRESQDTSFTTLVERVIQQLEGAFALVFKSVHFPGQAVGTRRGSPLLIGVRSEHKLSTDHIPILYRTGKDKKGSCNLSRVDSTTCLFPVEEKAVEYYFASDASAVIEHTNRVIFLEDDDVAAVVDGRLSIHRIKRTAGDHPGRAVQTLQMELQQIMKGNFSSFMQKEIFEQPESVVNTMRGRVNFDDYTVNLGGLKDHIKEIQRCRRLILIACGTSYHAGVATRQVLEELTELPVMVELASDFLDRNTPVFRDDVCFFLSQSGETADTLMGLRYCKERGALTVGITNTVGSSISRETDCGVHINAGPEIGVASTKAYTSQFVSLVMFALMMCDDRISMQERRKEIMLGLKRLPDLIKEVLSMDDEIQKLATELYHQKSVLIMGRGYHYATCLEGALKIKEITYMHSEGILAGELKHGPLALVDKLMPVIMIIMRDHTYAKCQNALQQVVARQGRPVVICDKEDTETIKNTKRTIKVPHSVDCLQGILSVIPLQLLAFHLAVLRGYDVDFPRNLAKSVTVE
notes: made in house; host or cells: SF9 insect cells (sonicated, centrifuged cell extract)
Km [1]: 1490 µM
Km [2]: 1850 µM
